Measured values taken from patent publication US20200216506A1 (CHILDREN S MEDICAL CENTER, published 2020).

Columns and labels:
NEMO = NEMO (UniProt O88522 1-412); assay: MyD88 co-immunoprecipitation from LPS-stimulated iBMDMs, western blot (FIG. 74A)
From the text: (§1) Data represent mean±SEM of triplicate wells. […] Data represent mean±SEM of triplicate wells.

IKKβ = biological target: T1, IKKβ (UniProt O88351 1-757); assay: as above
T1 sequence (looked up): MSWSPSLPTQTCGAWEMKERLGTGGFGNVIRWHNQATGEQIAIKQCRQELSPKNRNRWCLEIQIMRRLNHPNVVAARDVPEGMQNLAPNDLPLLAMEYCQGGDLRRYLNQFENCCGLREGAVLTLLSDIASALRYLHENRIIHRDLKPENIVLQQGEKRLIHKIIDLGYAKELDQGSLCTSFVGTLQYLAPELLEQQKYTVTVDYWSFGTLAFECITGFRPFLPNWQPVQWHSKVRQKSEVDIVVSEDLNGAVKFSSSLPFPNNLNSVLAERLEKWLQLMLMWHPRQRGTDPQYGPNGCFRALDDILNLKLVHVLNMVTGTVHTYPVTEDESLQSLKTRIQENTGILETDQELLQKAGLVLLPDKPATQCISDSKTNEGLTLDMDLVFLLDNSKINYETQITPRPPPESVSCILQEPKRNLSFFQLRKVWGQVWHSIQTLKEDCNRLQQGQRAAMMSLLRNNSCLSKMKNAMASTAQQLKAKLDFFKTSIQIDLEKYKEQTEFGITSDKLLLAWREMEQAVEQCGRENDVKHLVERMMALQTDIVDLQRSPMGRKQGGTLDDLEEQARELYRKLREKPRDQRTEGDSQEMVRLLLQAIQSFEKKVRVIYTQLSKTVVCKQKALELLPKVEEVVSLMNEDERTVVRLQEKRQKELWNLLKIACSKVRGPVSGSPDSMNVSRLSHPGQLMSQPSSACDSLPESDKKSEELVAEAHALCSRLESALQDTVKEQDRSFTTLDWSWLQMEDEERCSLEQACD
From the text: as §1

Sequence of NEMO (O88522 whole entry): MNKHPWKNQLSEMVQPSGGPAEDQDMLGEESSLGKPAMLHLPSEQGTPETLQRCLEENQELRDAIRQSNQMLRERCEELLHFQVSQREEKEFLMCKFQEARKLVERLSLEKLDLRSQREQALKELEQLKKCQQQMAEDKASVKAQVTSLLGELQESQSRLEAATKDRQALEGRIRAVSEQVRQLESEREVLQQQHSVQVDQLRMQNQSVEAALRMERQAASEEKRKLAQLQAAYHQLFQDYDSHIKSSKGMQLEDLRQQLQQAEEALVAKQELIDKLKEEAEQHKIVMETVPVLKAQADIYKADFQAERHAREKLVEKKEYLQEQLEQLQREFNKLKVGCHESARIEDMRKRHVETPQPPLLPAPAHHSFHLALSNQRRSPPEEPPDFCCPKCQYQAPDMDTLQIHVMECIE

B1: MyD88 (other, UniProt P22366 1-296, looked up)
chain: MSAGDPRVGSGSLDSFMFSIPLVALNVGVRRRLSLFLNPRTPVAADWTLLAEEMGFEYLEIRELETRPDPTRSLLDAWQGRSGASVGRLLELLALLDREDILKELKSRIEEDCQKYLGKQQNQESEKPLQVARVESSVPQTKELGGITTLDDPLGQTPELFDAFICYCPNDIEFVQEMIRQLEQTDYRLKLCVSDRDVLPGTCVWSIASELIEKRCRRMVVVVSDDYLQSKECDFQTKFALSLSPGVQQKRLIPIKYKAMKKDFPSILRFITICDYTNPCTKSWFWTRLAKALSLP
notes: Adaptor protein and core of the myddosome; also called endogenous MyD88; myeloid differentiation primary response gene 88
NEMO
  binding result: no binding
IKKβ
  binding result: no binding
